Test results from article PMC8624084, “Persulfidation of Nitrate Reductase 2 Is Involved in L-Cysteine Desulfhydrase-Regulated Rice Drought Tolerance” (International Journal of Molecular Sciences, 2021).

Key:
Type in all cases: biochemical, Oryza sativa
[1] = substrate: CC(=O)OC[C@H](N)C(=O)O; test: OAS-TL activity assay, Lineweaver-Burk; conditions: OAS-TL (cysteine synthase) side reaction; co-substrate Na2S
[2] = substrate: S; test: OAS-TL activity assay, Lineweaver-Burk; conditions: OAS-TL (cysteine synthase) side reaction; co-substrate OAS
purified protein = substrate: N[C@@H](CS)C(=O)O; test: purified protein; conditions: L-cysteine desulfhydrase (CDes) reaction, method section: 100 mM Tris/HCl pH 8.5, 2.5 mM DTT, 37 °C

B1: OsLCD1 (Oryza sativa Japonica Group) (protein)
chain: MASIPPDDDAAAAAAAGAAENGYGNGKGNGNGPAPRPPPAKRPRSVISAAQIRAEFEHHEAGVARVNNGSFGCCPSSLLDAQARWQRLFIAQPDDFYFHALQPGLRRSRAAVAGLVNAGDVAEVSLVDNATTAAAIVLQHAAWSFAEGRFSRGDAVLMLHYAYGAVKKSIHAYVARAGATVVEVPLPFPVASADAIIAEFRAALDVAKAGGRKVRLAVIDHITSMPSVVIPVKELVAICREEGVDKVFIDAAHSIGQVPVDVRDIGADFYTSNLHKWFFCPPAVAFLHTRKDDPIASQLHHPVVSHEYGNGLPMESGWIGTRDYSAQLVVPESIDFVNRFEGGIEGIRSRNHEKVIEMGKMLAEAWGTFLGTPPELCGSMVMVGLPGCLGVESDDDVMRMRTMLRKDFMVEVPIYYNSRRVEAQEMAKDKNGDAVTGYVRISHQVYNVTEDYEKLRDAVNKLVADGFTSSKLRPSQKQETMA
notes: full length, 482 residues, 55 kDa, N-terminal 6xHis tag (pET-28a(+)), E. coli Rosetta (DE3), Ni-NTA purified
B1 gave a Km [1] of 3.76 ± 0.41 mM, a Km [2] of 8.13 ± 0.72 mM and a Km (purified protein) of 0.15 ± 0.02 mM.
